Measurements from US20230243070A1 (Molecular Partners, published 2023).

What was measured:
[1] = biological target: T1, NYESOAApMHC (HLA-A*0201:NYESO1-9VAA), biotinylated recombinant complex (human); test: SPR (ProteOn), biotinylated pMHC on NLC chip
[2] = biological target: T2, EBNApMHC (HLA-A*0201:EBNA-1), biotinylated recombinant complex (human; Epstein Barr virus); test: SPR (ProteOn), biotinylated pMHC on NLC chip
[3] = biological target: T3, NYESOpMHC (HLA-A*0201:NYESO1-9V), biotinylated recombinant complex (human); test: SPR (ProteOn), biotinylated pMHC on NLC chip, PBS with Tween
T3 construct: also called NY-ESO-1 peptide-MHC complex

[4] = biological target: T4, MAGEA3pMHC, biotinylated recombinant complex (HLA-A*0101, MAGE-A3 peptide) (human); test: ribosome display selection, crude extract HTRF
T4 construct: also called MAGE-A3 peptide-MHC complex

[5] = biological target: T5, HBVc18pMHC, biotinylated recombinant complex (HLA-A*0201: HBVc18) (human; Hepatitis B virus); test: SPR (ProteOn)
T5 construct: also called HBVc18 peptide-MHC complex

[6] = biological target: T6, NYESOpMHC on T2 cells pulsed with NY-ESO-1-9V (157-165) peptide
[7] = biological target: T6, NYESOpMHC on T2 cells pulsed with …; remark: listed apart in the source
[8] = biological target: T3, NYESOpMHC (HLA-A*0201:NYESO1-9V), …
[9] = biological target: T2, EBNApMHC (HLA-A*0201:EBNA-1), …
[10] = biological target: T2, EBNApMHC (HLA-A*0201:EBNA-1), …; test: SPR (ProteOn), biotinylated EBNApMHC on the chip
[11] = biological target: T1, NYESOAApMHC (HLA-A*0201:NYESO1-9VAA), …; test: SPR (ProteOn), biotinylated NYESOAApMHC on the chip
[12] = biological target: T1, NYESOAApMHC (HLA-A*0201:NYESO1-9VAA), …

B1: DARPin® protein #26 (designed binder)
chain: MRGSHHHHHHGSDLGEKLLFAAFIGQDDEVRILLAAGADVNAKDEYGHTPLHAAAQHGHLEIVEVLLKAGADVNAKDQFGLTPLHIAAIFGHLEIVEVLLKAGADVNAQDHAGYTPADLAAWQGHEDIAEVLQKAA
binding result [1]: no binding | binding result [2]: no binding (tested: 3.7 nM to 300 nM, or 250 nM single trace) | Kd [3]: 1.29 nM

B2: SEQ ID NO 165 (designed binder)
chain: GSDLGEKLLQAALEGQDDEVRELLKAGADVNAKDLVGWTPLHIAAYRGHLEIVEVLLKAGADVNAKDWVGLTPLHLAAIEGHLEIVEVLLKAGADVNAQDREGKTPADLAALLGHEDIAEVLQKAA
binding result [4]: binds

B3: SEQ ID NO 160 (designed binder)
chain: GSDLGKKLLQAAQAGQDDEVRELLKAGADVNAKDEWGRTPLHVAAYWGHLEIVEVLLKAGADVNAKDSFGLTPLHLAAIEGHLEIVEVLLKAGADVNAQDQQGATPADLAALLGHEDIAEVLQKAA
binding result [4]: binds

B4: DARPin® protein #27 (designed binder)
chain: MRGSHHHHHHGSDLGFKLLQAAHYGQDDEVRILLAAGADVNAKDEYGRTPLHHAALKGHLEIVEVLLKAGADVNAKDEFGTTPLHYAAIFGHLEIVEVLLKAGADVNAQDSSGFTPADLAALVGHEDIAEVLQKAA
binding result [1]: no binding | binding result [2]: no binding (tested: 3.7 nM to 300 nM, or 250 nM single trace) | Kd [3]: 0.494 nM

B5: DARPin® protein comprising SEQ ID NO 230 (linked to a CD3-specific binding agent) (designed binder)
chain: GSDLGKKLLQAARAGQLDEVHELLKAGADVNAKDQHGKTPMHLAAQIGHLEIVEVLLKAGADVNAKDHIGWTPLHLAASVGHLEIVEVLLKAGADVNAKDQEGWTPLHVAAQLGHLEIVEVLLKAGADVNAQDKSGKTPADLAARAGHQDSAEVLQKAA
Kd [5]: 0.00933 µM

B6: DARPin® protein #20 (designed binder)
chain: MRGSHHHHHHGSDLGKKLLQAARAGQLDEVRELLKAGADVNAKDQSGATPLHLAAFRGHLEIVEVLLKAGADVNAKDAAGYTPLHIAAVYGHLEIVEVLLKAGADVNAKDSAGETPLHLAAYAGHLEIVEVLLKAGADVNAQDKSGKTPADLAARAGHQDIAEVLQKAA
EC50 [6]: 0.0206 µM | binding result [1]: no binding | binding result [2]: no binding (tested: 3.7 nM to 300 nM, or 250 nM single trace) | Kd [3]: 5.79 nM

B7: DARPin® protein #22 (designed binder)
chain: MRGSHHHHHHGSDLGKKLLQAARAGQLDEVRELLKAGADVNAKDAIGFTPLHLAAFSGHLEIVEVLLKAGADVNAKDVAGYTPLHVAALYGHLVIVEVLLKAGADVNAKDKAGETPLHLAAFAGHLEIVEVLLKAGADVNAQDKSGKTPADLAARAGHQDIAEVLQKAA
EC50 [6]: 0.0037 µM | EC50 (read off the curve) [7]: ~0.003 µM | binding result [1]: no binding | binding result [2]: no binding (tested: 3.7 nM to 300 nM, or 250 nM single trace) | Kd [3]: 0.0685 nM

B8: DARPin® protein comprising SEQ ID NO 220 (linked to a CD3-specific binding agent) (designed binder)
chain: GSDLGHKLLFAASAGQDDEVRILLAAGADVNAKDESGQTPLHYAAFVGHLEIVEVLLKAGADVNAKDQWGHTPLHVAATFGHLEIVEVLLKAGADVNAQDTWGTTPADLAATFGHEDIAEVLQKAA
Kd [5]: 0.00465 µM

B9: DARPin® protein comprising SEQ ID NO 229 (linked to a CD3-specific binding agent) (designed binder)
chain: GSDLGSKLLYAAISGQDDEVRILLAAGADVNAKDESGQTPLHYAAFVGHLEIVEVLLKAGADVNAKDQWGHTPLHVAATFGHLEIVEVLLKAGADVNAQDTWGTTPADLAATFGHEDIAVVLQKAA
Kd [5]: 0.00103 µM

B10: DARPin® protein comprising SEQ ID NO 224 (linked to a CD3-specific binding agent) (designed binder)
chain: GSDLGFKLLEAALEGQDDEVRILLAAGADVNAKDESGQTPLHYAAFVGHLEIVEVLLKAGADVNAKDQWGHTPLHVAATFGHLEIVEVLLKAGADVNAQDTWGTTPADLAATFGHEDIAEVLQKAA
Kd [5]: 0.000736 µM

B11: DARPin® protein comprising SEQ ID NO 228 (linked to a CD3-specific binding agent) (designed binder)
chain: GSDLGWKLLHAATTGQDDEVRILLAAGADVNAKDESGQTPLHYAAFVGHLEIVEVLLKAGADVNAKDQWGHTPLHVAATFGHLEIVEVLLKAGADVNAQDTWGTTPADLAATFGHEDIAEVLQKAA
Kd [5]: 0.00472 µM

B12: DARPin® protein comprising SEQ ID NO 226 (linked to a CD3-specific binding agent) (designed binder)
chain: GSDLGKKLLSAAQSGQDDEVRILLGAGADVNAKDKWGHTPLHLAAVKGHLEIAEVLLKAGADVNAKDEWGSTPLHLAASQGHLEIVEVLLKAGADVNAKDKKGATPLHLAALVGHLEIVEVLLKAVADVNAQDKSGKTPADLAARAGHQDIAEVLQKAA
Kd [5]: 0.0138 µM

B13: SEQ ID NO 167 (designed binder)
chain: GSDLGKKLLQAARAGQLDEVRELLKAGADVNAKDSSGWTPLHLAAYTGHLEIVEVLLKAGADVNAKDQWGLTPLHLAALEGHLEIVEVLLKAGADVNAKDHTGKTPLHLAAQQGHLEIVEVLLKAGADVNAQDKSGKTPADLAARAGHQDIAEVLQKAA
binding result [4]: binds

B14: DARPin® protein #21 (designed binder)
chain: MRGSHHHHHHGSDLGKKLLQAARAGQLDEVRELLKAGADVNAKDLIGVTPLHLAAFSGHLEIVEVLLKASADVNAKDVSGRTPLHVAAKHGHLEIVEVLLKAGADVNAKDLIGFTPLHLAAQFGHLEIVEVLLKAGADVNAQDKSGKTPADLAARAGHQDIAEVLQKAA
EC50 [6]: 0.0045 µM | koff [8]: 0.000473 s⁻¹ | kon [8]: 549000 M⁻¹ s⁻¹ | KD (fit header over a trace without response) [9]: 3050 µM | Ka (fit header over a trace without response) [9]: 2.78e-08 M⁻¹ s⁻¹ | kd (fit header over a trace without response) [9]: 8.5e-11 s⁻¹ | binding result [10]: no binding | Kd [3]: 0.861 nM | binding result [11]: no binding | KD (fit header over a trace without response) [12]: 0.846 pM | Ka (fit header over a trace without response) [12]: 8.23e+06 M⁻¹ s⁻¹ | kd (fit header over a trace without response) [12]: 6.97e-06 s⁻¹

B15: DARPin® protein comprising SEQ ID NO 222 (linked to a CD3-specific binding agent) (designed binder)
chain: GSDLGYKLLTAAIVGQDDEVRILLAAGADVNAKDQSGLTPLHLAAAYGHLEIVEVLLKAGADVNAKDKHGRTPLHLAALEGHLEIVEVLLKAGADVNAQDQFGITPADLAAAVGHEDIAEVLQKAA
Kd [5]: 0.00715 µM

B16: DARPin® protein comprising SEQ ID NO 227 (linked to a CD3-specific binding agent) (designed binder)
chain: GSDLGQKLLTAAIVGQDDEVRILLAAGADVNAKDQSGLTPLHLAAAYGHLEIVEVLLKAGADVNAKDKHGRTPLHLAALEGHLEIVEVLLKAGADVNAQDQFGITPADLAAAVGHEDIAEVLQKAA
Kd [5]: 0.0071 µM

B17: DARPin® protein #28 (designed binder)
chain: MRGSHHHHHHGSDLGQKLLKAAALGQDDEVRDLLKAGADVNAKDYQGQTPLHLAAWTGHLEIVEVLLKAGADVNAKDHFGYTPLHIAAHFGHLEIVEVLLKAGADVNAQDAAGQTPADLAAAEGHEDIAEVLQKAA
binding result [1]: no binding | binding result [2]: no binding (tested: 3.7 nM to 300 nM, or 250 nM single trace) | Kd [3]: 2.57 nM

B18: SEQ ID NO 172 (designed binder)
chain: GSDLGKKLLQAARAGQLDEVRELLKAGADVNAKDEWGATPLHLAAYAGHLEIVEVLLKAGADVNAKDRWGLTPLHVAAVEGHLEIVEVLLKAGADVNAKDIEGETPLHIAAFTGHLEIVEVLLKAGADVNAQDKSGKTPADLAARAGHQDVAEVLQKAA
binding result [4]: binds

B19: DARPin® protein comprising SEQ ID NO 221 (linked to a CD3-specific binding agent) (designed binder)
chain: GSDLGQKLLLAAAIGQDDEVRILLAAGADVNAKDESGHTPLHYAAHVGHLEIVEVLLKAGDVNAKDHRGFTPLHVAAQIGHLEIVEVLLKAGADVNAQDNWGITPADLAAWWGHEDIAEVLQKAA
Kd [5]: 0.000369 µM

B20: SEQ ID NO 169 (designed binder)
chain: GSDLGKKLLQAARAGQLDEVRELLKAGADVNAKDHWGKTPLHLAAYEGHLEIVEVLLKAGADVNAKDLFGLTPLHLAAIEGHLEIVEVLLKAGADVNAKDSFGYTPLHVAAQVGHLEIVEVLLKAGADVNAQDKSGKTPADLAARAGHQDIAEVLQKAA
binding result [4]: binds

B21: DARPin® protein comprising SEQ ID NO 225 (linked to a CD3-specific binding agent) (designed binder)
chain: GSDLGIKLLFAANFGQDDEVRILLAAGADVNAKDQSGRTPLHLAALWGHLEIVEVLLKAGADVNAKDVFGLTPLHIAATFGHLEIVEVLLKAGVDVNAQDYTGHTPADLAALIGHEDIAEVLQKAA
Kd [5]: 0.00923 µM

B22: SEQ ID NO 157 (designed binder)
chain: GSDLGYKLLYAALFGQDDEVRILLAAGADVNAKDYFGKTPLHIAAYYGHLEIVEVLLKAGADVNAKDRYGITPLHLAALEGHLEIVEVLLKAGADVNAQDTDGITPADLAAWEGHEDIAEVLQKAA
binding result [4]: binds
